The values that follow come from PMC6447857, “Structural Study of Agmatine Iminohydrolase From Medicago truncatula, the Second Enzyme of the Agmatine Route of Putrescine Biosynthesis in Plants” (Frontiers in Plant Science, 2019).

The series concerns the molecule itself. Put plainly: SEC-MALS; in-line SEC (WTC-015S5 column) with MALS detector, 5.5 mg/ml MtAIH solution loaded; monomer to dimer. A general note: In gel filtration, larger molecules generally elute earlier.

B1: agmatine iminohydrolase from Medicago truncatula (enzyme)
chain: SNAHGFHMPAEWEPHSQCWIGWPERADNWRDGAVHAQLVFTRVAAAISRFEKVTVCASSAQWENARNQLPDHVRVVEISSNDSWFRDIGPTFVVRRETSKSDDAEHRIAGIDWTFNSWGGLEDGCYCDWSLDSLVKKKILDVERIPRFSHSMVLEGGSIHVDGEGTCITTEECLLNKNRNPHLSKSQIEDELKAYLGVRKVIWLPRGLYGDDDTNGHVDNMCCFVRPGAVLLSWTDDKTDPQYERSEEAYSLFSSVTDANGRKFEVIKLHVPGPLYMTEKEAAGVFQDDGAKPRLPGTRLAASYVNFYIANGAIIAPQFGDKKWDDEAIRVLSKTFPHHEVVGIEGSREIVLSGGNIHCITQQQPAI
notes: Ser-Asn-Ala linker from the vector pMCSG68 that is not cleaved from the expressed protein; agmatine iminohydrolase, Medicago truncatula, UniProt G7JT50, open reading frame MTR_4g112810, encoded protein starting from codon number 11 to the end; theoretical mass of the construct 41.2 kDa; Homodimer by MALS, SAXS and in both crystal forms; In 6NIC the protein holds the small molecule …
By stoichiometry N is commonly meant a count of units in the complex or per binding partner. As to B1, the “stoichiometry N” value worked out at 2.
